Here are results for 4 molecules from patent US20210009993A1 (ROCHE DIAGNOSTICS OPERATIONS, published 2021).

This assay addresses T1, human cardiac troponin T (cTnT) (human, UniProt P45379 2-298).
T1 construct: also called Recombinant human TnT (Roche, 37 kDa)
Kind of assay: SPR, Biacore T200, 37 C; Fab captured via anti-human F(ab')2, cTnT analyte. As to the method: Detailed kinetic investigations were performed at 37° C. on a GE Healthcare T200 instrument. A Biacore CM-5 series S sensor was mounted into the instrument and was preconditioned according to the manufacturer's instructions. The system buffer was HBS-ET (10 mM HEPES (pH 7.4), 150 mM NaCl, 1 mM EDTA, 0.05% (w/v) Tween® 20). The sample buffer was the system buffer supplemented with 1 mg/ml CMD (Carboxymethyldextran, Fluka). In one embodiment an anti-human antibody capture system was established on the CMS biosensor. GAHF(ab′)2, (goat anti human F(ab′)2) (Code Nr.: 109-005-097, lot #13.12.2005, Jackson Immuno Research) was immobilized according to the manufacturer's instructions using NHS/EDC chemistry. 30 μg/ml GAHF(ab′)2 in 10 mM sodium acetate buffer (pH 5.0) were preconcentrated to the flow cells 1, 2, 3 and 4 and were immobilized with 10.000 RU GAHF(ab′)2. The sensor was subsequently saturated with 1 M ethanolamine pH 8.5.
Chimeric anti-TnT antibody fragments were periplasmatically expressed in E. coli cells as described and were lyzed by methods known (for technical details see: Andersen, D. C. & Reilly, D. E. (2004); Production technologies for monoclonal antibodies and their fragments. Curr Opin Biotechnol 15, 456-62). The lysates were diluted 1:20 in sample buffer. Fab fragments were captured via their humanized framework regions from the expression lysates on the biosensor at a flow rate of 10 μl/min for 1 min followed by a 2 min washing step with 10-fold concentrated HBS-EP buffer at 30 μl/min. The Fab fragment capture level (CL) in response units (RU) was monitored. Recombinant human TnT (Roche, 37 kDa) was diluted in sample buffer at 90 nM and a concentration series was produced with […], 30 nM, 11 nM, 3.3 nM, 1.1 nM, 0 nM, 3.3 nM TnT concentration. The analyte concentration series were 80 μl/min for 3 min association phase and the dissociation phase was monitored for 3 min.
The kinetic parameters ka [1/Ms], kd [1/s], t1/2 diss [min], KD [M] and the binding stoichiometry (Molar Ratio) (for details see: Schraeml, M. & Biehl, M. (2012); Kinetic screening in the antibody development process. Methods Mol Biol 901, 171-81.) of the cTnT analyte were determined for each Fab fragment mutant with the Biaevaluation Software (GE healthcare) according to the manufacturer's instructions.
A general note: SPR reads the build-up and loss of mass on a sensor chip optically.

Residue numbers refer to the chain shown, from its start. Names and notes keep the numbering of the source.

B1: anti-cTnT Fab fragment, CDR combination 1 (Y34F) (Fab, V domains shown)
VH: EVQLQQSGPELVKPGASVKMSCKASGYTFTDYFMKWVKQSHGKSLEWIGDINPNNGETFYNQKFKDKATLTVDKSSSTAYMQLNSLTSEDSAVYYCATRVFDYWGQGTTLTVSS
VL: DIVLTQSPASLAVSLGQRATISCKASQSVDYDGTSYMNWFQQKAGQPPKRLIYAASNLESGIPARFSGRGSGTDFALNIHPVEEEDAATYYCQQSNEDPYTFGGGTKLEIKR
notes: tested from E. coli lysate; also called mutant 1
Regarding B1, binding was characterised by a dissociation constant (Kd) of 0.61 nM.

B2: anti-cTnT Fab fragment, CDR combination 21 (F60W, V101Y) (Fab, V domains shown)
VH: B1 VH with F33Y, F59W, V100Y
VL: B1 VL
notes: tested from E. coli lysate; also called mutant 21
B2 yielded a t/2-diss of 3 min.

B3: anti-cTnT Fab fragment, CDR combination 9 (Y34I) (Fab, V domains shown)
VH: B1 VH with F33I
VL: B1 VL
notes: tested from E. coli lysate; also called mutant 9
In the case of B3, the “MR (Molar Ratio)” value was determined as 0.6.

B4: anti-cTnT Fab fragment, CDR combination 19 (Y104F) (Fab, V domains shown)
VH: B1 VH with F33Y, Y103F
VL: B1 VL
notes: tested from E. coli lysate; also called mutant 19
B4 yielded a Kd of 0.48 nM. This lies in the sub-nanomolar range.

As usually defined, the Kd is a measure of binding affinity in units of concentration.
